Measurements: article PMC8512817
pKi: −log10 of the molar value.

Biological target: A9UPE9 PDZ (A9UPE9_MONBE PDZ domain, residues 7-98) (Monosiga brevicollis)
Assay: fluorescence polarisation

Row | pKi | Substance
1 | 3.24 | A9V7Z4 peptide (EDETAL)
2 | 4.01 | A9V6G5_MONBE peptide (HRESTV)
3 | 3.62 | DLL1/DLL4 peptide (VIATEV)
4 | 3.48 | BPIX peptide (WDETNL)
5 | 3.31 | A9UWP5_MONVE peptide (GSESSV)
6 | 4.02 | B1AR peptide (ASESKV)
7 | 3.34 | A9UXE1 peptide (QDETAL)
8 | 4.01 | TYRP1 peptide (PNQSVV)
9 | 4.19 | A9UP44 peptide (QSESRL)
